Here are results for 2 molecules from patent publication EP4741425A1 (Shenzhen Synthetica Pioneering Co., Ltd., dated 2026).

In the assay the target is T1, CXCR2 on the surface of neutrophils (primary neutrophils from blood of C57BL/6 mice) (mouse, UniProt P35343 1-359).
T1 construct: whole, on cells; No CXCR2-specific control is reported
T1 sequence (looked up): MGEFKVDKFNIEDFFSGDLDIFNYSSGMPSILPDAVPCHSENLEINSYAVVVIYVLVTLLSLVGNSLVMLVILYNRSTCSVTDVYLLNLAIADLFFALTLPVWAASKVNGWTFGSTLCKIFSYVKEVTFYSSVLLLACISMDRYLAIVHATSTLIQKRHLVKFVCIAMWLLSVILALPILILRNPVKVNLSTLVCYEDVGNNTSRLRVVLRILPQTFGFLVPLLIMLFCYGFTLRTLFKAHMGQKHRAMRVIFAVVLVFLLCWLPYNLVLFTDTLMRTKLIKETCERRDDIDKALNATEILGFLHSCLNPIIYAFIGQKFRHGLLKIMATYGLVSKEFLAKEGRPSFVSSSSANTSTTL
The assay is described as follows: flow cytometry on primary mouse blood neutrophils, anti-His tag PE detection. Background: In flow cytometry, cells or beads pass a laser one at a time.

B1: Nb127D01 (VHH)
VHH: EVQLVESGGGLVQAGESLRLSCAASGSTFDFKVMGWYRQPPGKQREGVAAIRLSGNMHYAESVKGRFAISKANAKNTVYLQMNSLRPEDTAVYYCKVNIRGQDYWGQGTQVTVSS
notes: Expressed in E. coli BL21(DE3) as signal peptide + nanobody + HA-His tag and purified on a nickel column by the His tag; The signal peptide is left out here as a secretion signal; also called Nb127D01-HA-his; not shown: HA-His tag linked directly to the C-terminus
Regarding B1, the binding result is “binds”.

B2: Nb163E3 (VHH)
VHH: EVQLVESGGGLVQPGGSVRLSCVASGRIFSSNAMGWFRQAPGKEREFVAAITWRSGGSAYYADSAKGRFTISRDNAKNTVYLQMNSLKPEDTAVYYCAAGGSSWLSFPPDYWGQGTQVTVSS
notes: Expressed in E. coli BL21(DE3) as signal peptide + nanobody + HA-His tag and purified on a nickel column by the His tag; The signal peptide is left out here as a secretion signal; also called Nb163E3-HA-his; not shown: HA-His tag linked directly to the C-terminus
In the case of B2, the binding result is listed as “binds”.
